# Test results as given in publication PMC8748927.
# B1: A05 TCR (peptide)
# chain 1: CAEVLGGTSYGKLTF
# chain 2: CSASGRRGYGYTF
# Target: Mycobacterium tuberculosis cell wall sulfoglycolipid peptide on CD1b (human)
# Assay: IFN-γ ELISPOT. CD4 clone of primary T cells transduced with the A05 TCR, with K562-CD1b. SGL was titrated from 1 µg/ml to 10^-7 µg/ml. This EC50 is stated to be 100-fold lower than that of an A05-CD8 T cell clone.; full-length, on cells
# Settings: chains alpha TRAV13-2 TRAJ52 CDR3:beta TRBV20-1 TRBJ1-2 CDR3
binder,measurement,value
B1,EC50 of peptide,0.6 ng/mL
